± gives the uncertainty stated by the source.
Test: protein stability index of a GFP-peptide fusion (yeast GPS) (PSI 1-4); higher = more stable; sorted into four equal gates, so the index is relative within each strain
How it was run: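 Yeast carrying a pooled library were grown to mid-log phase in leucine-free medium. Each library plasmid expresses Cherry and has a tiled 17-residue yeast protein peptide fused downstream of GFP. Cells were sorted into four equal gates by GFP/Cherry ratio, and plasmids from each gate were PCR-amplified, Illumina-sequenced and assigned to strains by barcode. Summing, across gates, the read frequency times the gate number gave each peptide's protein stability index.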

Sequence	protein stability index (ubr1∆)	protein stability index (doa10∆)	protein stability index (pdr5∆)	protein stability index (san1∆)
AVHNGGRKHVAALRTVK [RPL9A]	2.88 ± 0.19	–	–	–
VDRLKIGGSLARIALRH [RPS25A]	1.8 ± 0.096	2.66 ± 0.13	2.1 ± 0.07	2.01 ± 0.073
IRSVALNDSNVKSFKPH [RRP42]	2.98 ± 0.13	2.63 ± 0.083	3.23 ± 0.17	2.62 ± 0.23
ISNVIKPNQTIMVLDAS [SRP54]	2.67 ± 0.059	2.48 ± 0.062	2.56 ± 0.053	2.83 ± 0.06
QNNEQNPIDPFNIIREF [YDL116W/NUP84]	3.17 ± 0.041	3.07 ± 0.052	3.15 ± 0.051	3.2 ± 0.04
VKKASGEIVSINQINEA [RPL20A]	2.79 ± 0.066	2.89 ± 0.1	2.82 ± 0.092	2.81 ± 0.062
HGSISPQEESVSPNISS [SIR3]	3.01 ± 0.034	2.82 ± 0.075	3.06 ± 0.07	2.98 ± 0.046
WKYNNFLQKFEIAFHLT [YML103C/NUP188]	2.36 ± 0.027	2.36 ± 0.048	2.19 ± 0.032	2.01 ± 0.052
RFKNSVKWYHFDHNDKK [PRE7]	2.62 ± 0.043	2.32 ± 0.057	2.76 ± 0.064	2.69 ± 0.043
IHFREHQSELIIKQTVH [YMR129W/POM152]	2.21 ± 0.053	2.46 ± 0.072	2.85 ± 0.069	2.48 ± 0.097
KSMLSKPETLSIGKNPF [SWI3]	2.9 ± 0.037	2.69 ± 0.053	2.91 ± 0.054	2.6 ± 0.05
LETLFNRWHSESWANQL [FAS2]	3.02 ± 0.056	2.81 ± 0.055	2.89 ± 0.076	2.87 ± 0.055
DDYDYVMYGTAYKFEEV [RPB8]	2.72 ± 0.051	2.55 ± 0.041	2.89 ± 0.048	2.95 ± 0.055
KKRSKVRKETYSSYIYK [HTB2]	3.38 ± 0.052	3.15 ± 0.074	3.33 ± 0.066	3.14 ± 0.071
MSSDASTYRLEDVLSSF [SSN2]	2.56 ± 0.091	2.21 ± 0.073	2.38 ± 0.069	1.9 ± 0.1
AGKFPTPVSHNDDLYGK [RPL1A]	2.45 ± 0.043	2.26 ± 0.041	2.62 ± 0.056	2.21 ± 0.057
IILSIDEHHESFELKEE [RRP6]	2.98 ± 0.088	3.19 ± 0.1	2.99 ± 0.15	3.08 ± 0.08
IPSSYIKRTDEGGEAEF [ARP7]	3.45 ± 0.051	3.4 ± 0.16	3.14 ± 0.1	3.16 ± 0.11
KQRAGTASFIPLDTIET [SMC1]	2.66 ± 0.051	2.62 ± 0.06	2.82 ± 0.064	2.65 ± 0.056
DTYKRFKYLLGVTDLFR [ISW2]	1.34 ± 0.075	1.85 ± 0.045	1.37 ± 0.052	1.21 ± 0.11
DSEERDPKLEKCLNYRN [ITC1]	2.49 ± 0.038	2.85 ± 0.07	2.74 ± 0.088	2.71 ± 0.061
LEDFENFKGLAKEKERM [YIL149C/MLP2]	3.35 ± 0.083	3.41 ± 0.075	3.51 ± 0.085	3.42 ± 0.054
LKEILNVAKNMKTPSLT [RPO21]	3.47 ± 0.12	3.33 ± 0.12	3.06 ± 0.11	3.1 ± 0.072

Sequence	protein stability index (ubr1∆)	protein stability index (doa10∆)	protein stability index (pdr5∆)	protein stability index (san1∆)
YQMHIKTSKDIAVLRSK [FAS1]	2.46 ± 0.072	2.25 ± 0.051	2.14 ± 0.062	2.3 ± 0.062
KHAEFDLSLLGYCDDIA [SIR2]	2.32 ± 0.063	3 ± 0.088	2.68 ± 0.066	2.99 ± 0.056
NFHNSKKRMNSNQERCH [RRI1]	2.99 ± 0.07	2.51 ± 0.062	2.51 ± 0.057	2.83 ± 0.071
SDPNNQSLNEMVKLIVM [YJL039C/NUP192]	2.35 ± 0.056	2.66 ± 0.066	2.74 ± 0.052	2.97 ± 0.078
ILADEMGLGKTLQTISF [ISW2]	2.77 ± 0.061	3.09 ± 0.07	3.06 ± 0.066	2.91 ± 0.057
LLIATNLKEYNKFMSIF [SRB8]	1.94 ± 0.086	1.64 ± 0.051	1.82 ± 0.089	2.17 ± 0.2
LAKYRDAGKIDKHLYHV [RPL19A]	3.61 ± 0.095	3.3 ± 0.18	3.39 ± 0.15	1.27 ± 0.28
SANVELFKRDCNQMENL [YCS4]	3.35 ± 0.074	3.38 ± 0.1	3.35 ± 0.09	3.4 ± 0.062
NDPAREKFSSFIESIVV [SNF12]	2.77 ± 0.04	2.78 ± 0.056	2.8 ± 0.058	2.27 ± 0.071
VCDLALRFGEGASGEER [PUP2]	3.1 ± 0.21	2.75 ± 0.2	3.4 ± 0.2	–
GVTIEFSTNVKDEIVLS [RPL9A]	3.18 ± 0.065	3.09 ± 0.23	3.33 ± 0.13	3.3 ± 0.088
VSFNSKQNEQLHVEQLS [SMC3]	2.85 ± 0.066	2.27 ± 0.071	2.72 ± 0.087	2.47 ± 0.1
RKQIDETQVLVSTPEKW [BRR2]	2.77 ± 0.028	2.07 ± 0.052	2.46 ± 0.058	2.31 ± 0.055
SLHILMIFWNDICQIDT [SRB8]	1.92 ± 0.029	1.36 ± 0.031	1.33 ± 0.032	1.52 ± 0.053
EAARICANKYMTTVSGR [RPL10]	1.93 ± 0.1	2.24 ± 0.24	2.59 ± 0.14	1.75 ± 0.2
IMKNKDFILSLLHHVSE [YJL039C/NUP192]	2.52 ± 0.065	2.41 ± 0.12	2.35 ± 0.099	1.92 ± 0.11
YKFLDQNSDASTLEPTL [YIL149C/MLP2]	2.67 ± 0.18	2.24 ± 0.11	1.65 ± 0.092	2.27 ± 0.09
TYEMRIHKRYIDLEAPV [RPS20]	2.51 ± 0.28	2.17 ± 0.16	2.71 ± 0.15	–
TTPEKPEETPLEELAET [FAS2]	3.5 ± 0.051	3.28 ± 0.076	3.09 ± 0.074	3.28 ± 0.051
IPAAGNNRSVSMQTIAE [SRB5]	3.3 ± 0.07	3.09 ± 0.078	3.12 ± 0.087	3.22 ± 0.081
STRLKKACKTADKLVNV [SRP68]	3.18 ± 0.052	3.38 ± 0.081	3.26 ± 0.073	2.98 ± 0.074
MVATVKRTIRIKTQQHI [TAF14]	1.56 ± 0.09	1.62 ± 0.09	1.95 ± 0.053	1.53 ± 0.14

From the supplement of paper PMC9732359
